Results on 3 molecules are retold here after patent publication US20260166085A1 (BEAM THERAPEUTICS, published 2026).

For orientation: EC50 means the concentration that produces a half-maximal response. For orientation: Kd means the concentration at which binding is half-saturated. The koff is the rate constant with which the complex falls apart. A low value points to slow dissociation. The kon is the second-order rate constant of association. Read a low kon as slower complex formation.

In assay [1] the target is T1, Wild type CD117 purified protein (human, UniProt P10721 26-520, limits assumed).
T1 construct: Protein used in BLI/kinetics and cryo-EM; also called wt CD117; Wt CD117
T1 sequence (P10721 26-520 limits assumed): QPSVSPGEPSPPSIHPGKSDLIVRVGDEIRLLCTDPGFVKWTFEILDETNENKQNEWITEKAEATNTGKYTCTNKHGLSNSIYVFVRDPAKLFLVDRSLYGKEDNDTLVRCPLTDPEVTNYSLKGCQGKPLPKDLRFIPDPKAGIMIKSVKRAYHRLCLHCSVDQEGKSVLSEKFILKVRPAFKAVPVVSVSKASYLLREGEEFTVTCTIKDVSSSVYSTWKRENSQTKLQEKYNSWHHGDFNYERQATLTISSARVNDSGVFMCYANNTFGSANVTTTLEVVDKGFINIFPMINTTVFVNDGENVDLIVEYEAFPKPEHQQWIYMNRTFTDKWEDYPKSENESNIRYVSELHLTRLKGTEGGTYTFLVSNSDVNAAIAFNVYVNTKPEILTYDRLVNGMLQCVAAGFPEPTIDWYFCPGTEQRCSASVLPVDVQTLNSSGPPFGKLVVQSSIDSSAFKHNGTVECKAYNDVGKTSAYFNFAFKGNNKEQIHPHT
Put plainly: binding kinetics grade, FIGS. 55A-55C.

The target of assay [2] is T2, Wild type CD117 expressed on cells (M07e cells, unedited human CD34+ HSPCs) (human, UniProt P10721 26-976).
T2 construct: Endogenous receptor on cells; also called wtCD117; WT CD117
T2 sequence (P10721 26-976 limits assumed): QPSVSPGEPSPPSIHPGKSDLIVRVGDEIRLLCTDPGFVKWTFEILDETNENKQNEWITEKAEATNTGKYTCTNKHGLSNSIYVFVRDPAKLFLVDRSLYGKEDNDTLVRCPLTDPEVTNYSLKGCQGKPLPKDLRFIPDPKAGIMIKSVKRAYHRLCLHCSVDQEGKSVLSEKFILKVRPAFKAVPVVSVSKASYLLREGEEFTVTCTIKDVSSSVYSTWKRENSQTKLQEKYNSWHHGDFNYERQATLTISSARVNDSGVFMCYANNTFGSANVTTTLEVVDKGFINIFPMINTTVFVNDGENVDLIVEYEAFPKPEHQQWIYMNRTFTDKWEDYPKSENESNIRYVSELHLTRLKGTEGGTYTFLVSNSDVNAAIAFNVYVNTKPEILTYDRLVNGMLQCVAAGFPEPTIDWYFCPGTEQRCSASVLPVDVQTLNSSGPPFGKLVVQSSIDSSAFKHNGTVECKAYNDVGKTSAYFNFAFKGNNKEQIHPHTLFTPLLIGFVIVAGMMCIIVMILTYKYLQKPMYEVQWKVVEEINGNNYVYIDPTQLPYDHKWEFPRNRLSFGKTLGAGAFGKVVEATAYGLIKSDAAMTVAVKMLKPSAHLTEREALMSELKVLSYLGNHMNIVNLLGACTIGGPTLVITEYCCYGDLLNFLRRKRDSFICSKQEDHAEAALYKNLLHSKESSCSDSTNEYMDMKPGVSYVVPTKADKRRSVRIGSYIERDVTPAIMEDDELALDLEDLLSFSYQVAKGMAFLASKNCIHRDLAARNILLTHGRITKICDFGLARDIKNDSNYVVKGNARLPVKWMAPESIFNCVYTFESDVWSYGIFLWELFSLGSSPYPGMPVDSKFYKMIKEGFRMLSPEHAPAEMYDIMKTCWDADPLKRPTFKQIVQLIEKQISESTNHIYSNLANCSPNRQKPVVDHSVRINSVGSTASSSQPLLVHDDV
As to the kind of experiment: flow cytometry on M07e cells expressing wild type CD117, 1 h (FIG. 87A).

In assay [3] the target is wild type CD117 extracellular domain (ECD) protein (human, UniProt P10721 26-524). As to the kind of experiment: BLI (Octet), antibody on AHC biosensor, CD117 ECD titrated 1:2 from 345 nM. On the procedure: The AHC biosensor data was analyzed using Octet Analysis Studio software.
Sequence of wild type CD117 extracellular domain (ECD) protein (P10721 26-524 limits assumed): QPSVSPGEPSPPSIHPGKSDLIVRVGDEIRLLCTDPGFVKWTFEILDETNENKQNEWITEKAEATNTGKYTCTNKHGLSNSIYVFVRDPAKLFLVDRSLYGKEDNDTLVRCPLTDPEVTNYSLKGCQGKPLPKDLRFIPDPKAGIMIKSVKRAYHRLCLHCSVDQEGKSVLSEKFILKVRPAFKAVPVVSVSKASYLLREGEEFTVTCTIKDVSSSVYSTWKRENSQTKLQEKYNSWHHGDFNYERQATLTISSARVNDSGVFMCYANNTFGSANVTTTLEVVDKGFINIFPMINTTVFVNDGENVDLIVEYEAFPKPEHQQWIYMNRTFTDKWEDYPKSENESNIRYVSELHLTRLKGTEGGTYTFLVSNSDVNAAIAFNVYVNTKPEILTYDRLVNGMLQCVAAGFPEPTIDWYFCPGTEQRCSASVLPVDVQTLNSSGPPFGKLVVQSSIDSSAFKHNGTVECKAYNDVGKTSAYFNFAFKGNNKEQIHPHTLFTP
On the technique in general: Biolayer interferometry detects binding as a change in optical thickness at a sensor tip.

Assay [4] deals with T3, CC128 variant of CD117 (Y259C + N260D) purified protein (human, UniProt P10721 26-520, limits assumed).
T3 construct: also called CC128-edited CD117 as purified protein
T3 sequence (P10721 26-520 Y259C/N260D limits assumed): as the sequence (P10721 26-520 limits assumed) above, with Y234C, N235D counted along it
As to the kind of experiment: BLI (Octet), CC128 variant on SA biosensor, antibody titrated 1:2 from 2.5 µM. On the procedure:
Binding to the CC128 variant of CD117 was determined using streptavidin (SA) biosensors, which were allowed to bind the CC128 variant from a 5 μg/ml solution thereof. The SA biosensors were then titrated with monoclonal antibodies starting at 2.5 μM and using titration increments of 1:2. Data was analyzed using the Octet Analysis Studio Software.

Assay [5] has as its target T2, Wild type CD117 expressed on cells …. As to the kind of experiment: cell-based or functional assay.
Assay [6] has the same target. As to the kind of experiment: flow cytometry (MFI) on M07e cells (FIG. 59). A general note: A flow cytometer gives signals particle by particle.
Assay [7] addresses T1, Wild type CD117 purified protein. As to the kind of experiment: binding kinetics, antibody 333.3 to 5.2 nM (FIGS. 58A-58D).

B1: ABTx252 (antibody, human IgG1, kappa, V domains shown)
VH: QVQLVQSGAAVKKPGESLKISCKGSGYRFTSYWIGWVRQMPGKGLEWMGIIYPGDSDTRYSPSFQGQVTISAGKSISTAYLQWSSLKASDTAMYYCARHGRGYDGYEGAFDIWGQGTMVTVSS
VL: AIQLTQSPSSLSASVGDRVTITCRASQGISSALAWYQQKPGKAPKLLIYDASSLESGVPSRFSGSGSGTDFTLTISSLQPEDFATYYCQQFNSHPLTFGGGTKVEIKR
In the case of B1, the binding result in assay [1] was “no binding”.

B2: ABTx308 (antibody, human IgG1, kappa, L234A L235A, V domains shown)
VH: QVQLVQSGAAVKKPGESLKISCKGSGYRFTSYWIGWVRQMPGKGLEWMGIIYPGDSDTKYSPSFQGQVTISAGKSISTAYLQWSSLKASDTAMYYCARHGRGYDAYDGAFDIWGQGTMVTVSS
VL: AIQLTQSPSSLSASVGDRVTITCRASQGISSALAWYQQKPGKAPKLLIYDASSLESGVPSRFSGSGSGTDFTLTISSLQPEDFATYYCQQFSSYPLTFGGGTKVEIKR
notes: Fc with LALADA
As for B2, it took 0.398 nM to reach a half-maximal effect in assay [2] (EC50). For the same molecule, in assay [3], the Kd is 8.48 nM, the koff was 0.0166 s⁻¹ and the on-rate (kon) was found to be 1.95e+06 M⁻¹ s⁻¹. Besides, the Kd in assay [4] came out at 7.49 nM.

B3: ABTx253 (antibody, human IgG1, kappa, V domains shown)
VH: QVQLVQSGAAVKKPGESLKISCKGSGYRFTSYWIGWVRQMPGKGLEWMGIIYPGDSDTRYSPSFQGQVTISAGKSISTAYLQWSSLKASDTAMYYCARHGRGYDGYEGAFDIWGQGTMVTVSS
VL: AIQLTQSPSSLSASVGDRVTITCRASQGISSALAWYQQKPGKAPKLLIYDASSLESGVPSRFSGSGSGTDFTLTISSLQPEDFATYYCQQFSSYPLTFGGGTKVEIKR
With B3, the “IC50 [M], viability of unedited HSCs with 100 ng/mL SCF, 5-7 days” value in assay [5] is 2.21e-06 M. The concentration for a half-maximal effect (EC50) in assay [6] turned out to be 0.0529 nM. In assay [7], this molecule gave a dissociation constant (Kd) of 13.1 nM, a koff of 0.00408 s⁻¹ and an on-rate (kon) of 312000 M⁻¹ s⁻¹.
